Literature values in publication PMC4815344.

Target: soluble epoxide hydrolase (Homo sapiens) (UniProt P34913)

soluble epoxide hydrolase, sequence (P34913 whole entry): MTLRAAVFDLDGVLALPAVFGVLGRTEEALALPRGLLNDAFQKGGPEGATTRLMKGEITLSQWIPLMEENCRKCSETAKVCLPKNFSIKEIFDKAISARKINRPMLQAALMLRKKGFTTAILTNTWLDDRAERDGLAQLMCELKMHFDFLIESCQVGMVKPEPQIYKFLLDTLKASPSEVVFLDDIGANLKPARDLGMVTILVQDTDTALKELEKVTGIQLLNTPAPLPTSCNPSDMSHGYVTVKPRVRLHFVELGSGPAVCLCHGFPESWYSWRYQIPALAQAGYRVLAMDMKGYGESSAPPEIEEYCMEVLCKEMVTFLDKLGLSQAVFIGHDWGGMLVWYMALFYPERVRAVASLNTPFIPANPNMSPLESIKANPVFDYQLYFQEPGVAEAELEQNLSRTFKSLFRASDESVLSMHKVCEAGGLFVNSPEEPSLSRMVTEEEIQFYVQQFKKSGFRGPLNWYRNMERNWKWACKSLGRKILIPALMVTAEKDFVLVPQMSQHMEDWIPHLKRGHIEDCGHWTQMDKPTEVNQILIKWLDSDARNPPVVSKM

soluble epoxide hydrolase (from UniProt P34913)
Kd: 5 pM
